Patent US7645735B2, “Anti-angiogenic peptides for treating or preventing endometriosis” (Children's Medical Center Corporation, priority 2003, dated 2010)
Values joined by “and” are separate entries in the source; they are usually repeats but may differ in a detail not shown here. Identical values can stand only once.

Key:
[1] = system: human umbilical vein endothelial cells (HUVEC); assay: VEGF stimulated migration of HUVEC, modified Boyden chambers; type: cell-based; settings: FIG. 13
Description: Cell migration assays were performed using modified Boyden chambers (6.5-mm diameter, 10-μm thickness, 8-μm pores, Transwell-Costar Corp., Cambridge, Mass.) coated with 10 μg/ml fibronectin in PBS overnight at 4° C. and rinsed with PBS. Subconfluent cells were trypsinized (0.01% trypsin/5 mM EDTA), neutralized with trypsin neutralization solution (Cascade Biologics Inc., Portland, Oreg.), washed, and resuspended in endothelial basal medium (EBM; Clonetics) with 0.1% BSA in the presence or absence of human endostatin (40, 200, 1000 ng/ml). In a second experiment we added either 600 ng/ml human endostatin or mP-1 at various doses (60, 200, 600 ng/ml). Cells were maintained in suspension for 30 min, added to the top of each migration chamber and allowed to migrate for 4 h in the presence or absence of VEGF (5 ng/ml) in lower chamber. Adherent cells were fixed and stained using the Hema-3 Stain System (Fisher Diagnostics, Middletown, Va.), following manufacturer's instructions. Non-migratory cells were removed with a cotton swab, and the number of migratory cells per membrane was captured using bright field microscopy connected to a Spot digital camera (Diagnostic Instruments, Sterling Heights, Mich.). Migrated cells from the captured image were counted using NIH image software. […]

Female SCID mice = assay: Fertility, pregnancy and offspring in tumor-bearing female SCID mice
Description: Female SCID mice were injected with human pancreatic tumor cells subcutaneously. When tumors reached a volume of approximately 100 mm^3 endostatin or placebo treatment was initiated and continued until the end of the study. After three days, females were mated.
Human BxPC-3 cells were grown in cells culture as described above. After washing with sterile PBS, cells were trypsinized and briefly re-suspended in RPMI 1640 medium containing 10% fetal calf serum (FCS) and 1% glutamine penicillin streptomycin (GPS) solution. After centrifuging, the cell concentration was adjusted to 50×10^6 cells/ml in additive-free RPMI 1640 medium and kept on ice. Female SCID mice were shaved on the dorsal side and the naked skin was cleaned with ethanol prior to injection. A suspension of 5×10^6 cells/ml in 100 μl was then injected subcutaneously into the dorsa of these mice at about one centimetre left of the midline.
Mice were weighed and tumors were measured every 7 days in two diameters using a dial-caliper. Tumor volumes were calculated using the formula a^2×b×0.52, while a being the shorter and b being the longer diameter. When tumors had reached a volume of approximately 100 mm^2 mice were divided into four groups.
During the first experiment, one group received endostatin (20 mg/kg; n=8) or vehicle (n=8) via subcutaneous osmotic pumps (Durect Corp., Cupertino, Calif.). Pumps were inserted via a small incision and placed into a subcutaneous pocket on the right lateral aspect of the animals' dorsa. The pumps were changed every week for a total of four weeks.
The other group received daily subcutaneous injections of endostatin (100 mg/kg, n=5) or vehicle (n=5) for the same period.
During a second study we repeated the experiment with endostatin in subcutaneous pumps. The other group in this series received the murine N-terminal fragment of endostatin (mP-1) at a dose of 2.5 mg/kg twice daily or PBS (n=5 each).
Three days after initiation of treatment female mice were added to a cage containing a male SCID mouse in a 1:1 ratio. All males had been housed separately three days prior to encountering the females and female bedding had been added to the male cages to enhance the males' libido.
For the following seven days every female was checked for a vaginal mucous plug as a sign of mating. These exams were performed during the early morning hours to optimize the results. Once a mucous plug had been noticed, mating was considered ‘successful’, and the female was not further examined in order to minimize iatrogenic stress.
Over the course of pregnancy the following parameters were assessed: ‘Mating Time’ describing the time between male encounter and the occurrence of a mucous plug; ‘Pregnancy Rate’, measured by ultrasound 15 days after the mucous plug was observed. The number of viable fetus was counted during this procedure; ‘Length of Pregnancy’, as measured from the time of successful mating to delivery; ‘Number of Total and Viable Litter’, counted on the day of birth; ‘Weight of Individual Pup’, by weighing the entire litter on the day of birth and calculating the mean weight.

[2] = system: human microvascular endothelial cells (HMVECs); assay: VEGF-induced migration of HMVECs, modified Boyden chamber; type: cell-based; settings: 100 ng/ml, VEGF 5 ng/ml
Description: Endostatin peptides were tested for anti-endothelial cell migration activity. Inhibition of VEGF-induced migration of human microvascular endothelial cells (HMVECs) was determined using several doses of endostatin peptides (FIG. 5). Human peptides were used because the cells were of human origin and the migration response of the HMVECs was assayed using a modified Boyden chamber. VEGF (5 ng/ml) was used a chemotactic agent and cells were challenged with human endostatin (Entremed; EM-ES), human Fc-Endostatin (nFcES), human P1 (hP1), human P2 (hP2), human P6 (hP6), and human P1-H1/3A (hP1-H1/3A). Total migration per membrane was quantified from the capture images using Scion Image Software (National Institutes of Health) and the unpaired Student T test was used for statistical analysis. […] No significant differences in inhibition between these concentrations were observed. At higher and lower concentrations less or no inhibition was observed. At 500 ng/ml of hP1 no inhibition was observed. Thus, similar to full-length endostatin, there is a U-shaped response to hP1 inhibition of EC migration.
The motility response of HMVEC-d cells was assayed using a modified Boyden chamber. Cells were plated in T75-cm2 flasks at 0.5×10^6 cells per flask and allowed to grow for 48 h (˜70% confluent) prior to the migration assay. To facilitate cell adhesion, the upper membrane of a transwell ([…]; Costar) was coated with fibronectin ([…]; Becton Dickinson, Bedford, Mass.) for 1 h at 37° C. Coated membranes were rinsed with PBS and allowed to air dry immediately before use. Cells were detached by trypsinization, treated with trypsinization neutralization solution (Clonetics), and resuspended at a final concentration of 1×10^6 cells/ml in serum-free endothelial basal medium (EBM; Clonetics) containing 0.1% BSA. Cells (200,000 in 0.2 ml) were then treated with 0.2 ml of EBM/BSA containing endostatin or peptides at the indicated concentrations. Cells were incubated for 20 min. at 37° C. with occasional shaking. Cells (50,000 in 100 μl) were added to the upper chamber of the transwell. EBM or EBM supplemented with VEGF (5 ng/ml) was added to the lower chamber and cells were allowed to migrate toward the bottom chamber for 4 h in a humidified incubator containing 5% CO2. Transwell filters were rinsed once with PBS and fixed and stained using a Diff-Quik staining kit (Baxter) following the manufacturer's protocol. Non-migrated cells were removed from the upper chamber with a cotton swab. Stained filters were cut out of the chamber and mounted onto slides using Permount (Fisher). The number of migrated cells was measured using microscopy (three fields from each membrane were captured using a 40× objective), and images were captured with a CCD camera using SPOT software. Total migration per membrane was quantified from the captured images using Scion Image software (National Institutes of Health). All experiments were run in triplicate. The unpaired Student t-test was used for statistical analysis.

B1: human endostatin (EntreMed): recombinant human endostatin, gift from EntreMed Corporation (protein, listed as Homo sapiens)
chain: HSHRDFQPVLHLVALNSPLSGGMRGIRGADFQCFQQARAVGLAGTFRAFLSSRLQDLYSIVRRADRAAVPIVNLKDELLFPSWEALFSGSEGPLKPGARIFSFNGKDVLTHPTWPQKSVWHGSDPNGRRLTESYCETWRTEAPSATGQAYSLLGGRLLGQSAASCHHAYIVLCIENSFMTASK
migration of HUVEC [1]: inhibit migration | mean length of pregnancy (Female SCID mice; endostatin pumps, two experiments): 20.6 ± 1.2 days and 20.75 ± 2 days | pregnancy rate with live births (Female SCID mice; injection group): 60% | litter size per delivery (Female SCID mice; injection studies, PBS 4.2±2.4): 5±1 | effect on the offspring (Female SCID mice; offspring of treated mice): did not see any negative effect on the offspring | litter size per delivery (Female SCID mice; pump group, PBS 4.6±1.7): 5±1.8 | mean weight of pups on the day of delivery (Female SCID mice; pump groups, PBS 1.4): 1.51 g | mating time (Female SCID mice; s.c. injections (endostatin 100 mg/kg daily; mP-1 2.5 mg/kg twice daily), PBS 1.9±0.9): 2.8 ± 1.5 days | mating time (Female SCID mice; s.c. osmotic pumps (endostatin 20 mg/kg), PBS 2.0±1): 2.6 ± 1.4 days | inhibition of EC migration [2]: not at 100 ng/ml
